Assay [1] deals with His-AnaRneN (N-terminal catalytic domain of Anabaena RNase E) (Anabaena PCC 7120). As to the kind of experiment: ITC.
For assay [2], the target named is AnaRne-GFP (RNase E tagged with GFP at the C-terminus, in situ) (Anabaena PCC 7120) (UniProt Q8YP69). As to the kind of experiment: FRET or BRET. For orientation: BRET reads energy transfer from a luciferase to a nearby fluorophore.

pKd: −log10 of the molar value.

Chain of UniProt Q8YP69 (Q8YP69 whole entry): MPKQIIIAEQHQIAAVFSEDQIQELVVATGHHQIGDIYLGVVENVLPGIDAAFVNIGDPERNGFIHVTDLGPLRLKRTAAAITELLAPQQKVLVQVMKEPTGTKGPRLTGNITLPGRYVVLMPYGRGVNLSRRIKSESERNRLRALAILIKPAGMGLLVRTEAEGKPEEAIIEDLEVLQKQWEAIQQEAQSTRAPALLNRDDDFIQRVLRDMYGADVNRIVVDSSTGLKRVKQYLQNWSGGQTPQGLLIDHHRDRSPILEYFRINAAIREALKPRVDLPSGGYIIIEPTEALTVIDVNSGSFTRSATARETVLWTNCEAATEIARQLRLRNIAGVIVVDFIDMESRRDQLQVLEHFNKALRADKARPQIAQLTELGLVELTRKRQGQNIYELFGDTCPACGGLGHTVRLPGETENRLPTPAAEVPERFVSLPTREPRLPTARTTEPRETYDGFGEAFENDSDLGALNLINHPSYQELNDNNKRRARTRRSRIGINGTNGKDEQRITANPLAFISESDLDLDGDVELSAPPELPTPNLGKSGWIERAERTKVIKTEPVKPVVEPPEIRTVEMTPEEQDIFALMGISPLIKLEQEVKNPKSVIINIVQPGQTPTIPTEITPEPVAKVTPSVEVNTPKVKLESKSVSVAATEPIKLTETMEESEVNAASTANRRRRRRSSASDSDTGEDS

By pKd is commonly meant the Kd on a negative log10 scale, so that one unit is a factor of ten. The low end stands for a large Kd, the high end for a small Kd. As usually defined, the stoichiometry N is the number of molecules, sites or subunits per partner or assembly. In assay [1], “Alr1240-Strep (Alr1240 with a C-terminal Strep tag fusion) (enzyme)” gave a pKd of 5.56 and a stoichiometry N of 1.
“AnaRnb-BFP (RNase II tagged with BFP at the C-terminus, in situ) (enzyme)” showed an FRET efficiency in assay [2] of 0.7.

These data come from publication PMC7144899.
